Patent US7666582B2, “IdeS, an IgG-degrading enzyme of Streptococcus pyogenes” (Hansa Medical Research AB, priority 2001, dated 2010)

What was measured:
Format in all cases: biochemical
human IgM = test: IdeS cleavage assay of Ig classes: IgM; conditions: purified IdeS, 2 h at 37° C.
Method: For standard IdeS activity assays, bacteria cultures were grown to OD620=0.4. Bacteria were pelleted by centrifugation and supernatants were sterile-filtered through a 0.22 μm membrane (Millipore) prior to use. For activity assays, […] of supernatant were mixed with 5 μl of IgG (10 mg/ml, Sigma) and the volume was adjusted with PBS to 100 μl. For screening of IdeS activity in different S. progenes strains, E64 was added to a final concentration of 40 μM. The mixtures were incubated at 37° C. for 30 min and samples were analyzed by 12% SDS-PAGE. For cleavage assays of different classes of Ig, purified IdeS (0.3 μg/ml) was incubated with 3 μg Ig for 2 h at 37° C., and analyzed by 12% SDS-PAGE analysis.

laminin = test: IdeS cleavage of other human proteins: laminin
cystatin D = target: T1, cystatin D (Homo sapiens, UniProt P28325); test: IdeS cleavage of other human proteins: cystatin D
T1 sequence (P28325 21-142): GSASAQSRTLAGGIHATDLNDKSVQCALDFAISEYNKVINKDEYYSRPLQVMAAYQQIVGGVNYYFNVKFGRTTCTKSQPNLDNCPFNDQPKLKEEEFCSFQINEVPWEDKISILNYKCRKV

[1] = target: T2, antimicrobial peptide LL-37 (Homo sapiens, UniProt P49913); test: IdeS activity towards peptides: LL-37
T2 construct: antimicrobial peptide LL-37
T2 sequence (P49913 134-170 limits assumed): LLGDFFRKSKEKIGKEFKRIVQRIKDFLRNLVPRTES

B1: IdeS: new extracellular cysteine protease produced by S. pyogenes, highly specific for IgG; SEQ ID NO: 1 (protein)
chain: DSFSANQEIRYSEVTPYHVTSVWTKGVTPPANFTQGEDVFHAPYVANQGWYDITKTFNGKDDLLCGAATAGNMLHWWFDQNKDQIKRYLEEHPEKQKINFNGEQMFDVKEAIDTKNHQLDSKLFEYFKEKAFPYLSTKHLGVFPDHVIDMFINGYRLSLTNHGPTPVKEGSKDPRGGIFDAVFTRGDQSKLLTSRHDFKEKNLKEISDLIKKELTEGKALGLSHTYANVRINHVINLWGADFDSNGNLKAIYVTDSDSNASIGMKKYFVGVNSAGKVAISAKEIKEDNIGAQVLGLFTLSTGQDSWNQTN
modifications: S. Pyogenes
degradation of human IgM (human IgM): only IgG was degraded
cleavage products, laminin (laminin): No cleavage products could be detected
cleavage products, cystatin D (cystatin D): No cleavage products could be detected
degradation of LL-37 [1]: did not reveal any degradation
